Source: PMC4930246 (Structure (London, England : 1993), 2015)
Changes are numbered by the printed parent chain. Blank lines part the entries; values can stand above or below the binder they belong to.

What was measured:
[1] = target: T1, FLRT3-LRR R117T (mouse, UniProt Q8BGT1 29-386, R117T, additional N-linked glycosylation at Asn115); assay: ITC
T1 sequence (looked up): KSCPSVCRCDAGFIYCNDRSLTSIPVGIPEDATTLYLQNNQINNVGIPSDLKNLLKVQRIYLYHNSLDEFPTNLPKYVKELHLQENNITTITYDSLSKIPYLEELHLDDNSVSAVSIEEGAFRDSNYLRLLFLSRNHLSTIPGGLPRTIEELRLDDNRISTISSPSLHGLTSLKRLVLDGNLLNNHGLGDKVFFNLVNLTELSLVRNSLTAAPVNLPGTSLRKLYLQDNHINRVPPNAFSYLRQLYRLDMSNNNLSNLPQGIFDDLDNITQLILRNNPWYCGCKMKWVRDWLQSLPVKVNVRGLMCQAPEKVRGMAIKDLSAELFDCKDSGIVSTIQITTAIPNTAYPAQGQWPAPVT

[2] = target: T2, FLRT3-LRR F160A (mouse, UniProt Q8BGT1 29-386, F160A); assay: ITC
T2 sequence (looked up): T1 sequence (looked up) with T89R, F132A

[3] = target: the molecule itself; assay: AUC

Kd [1]: 27 nM
Kd [2]: 1000 nM
B1: LPHN3-OLF (olfactomedin domain of mouse latrophilin 3, amino acids 199-495) (domain or fragment, UniProt Q80TS3 199-495, looked up)
chain: KVFLCPGLLKGVYQSEHLFESDHQSGAWCKDPLQASDKIYYMPWTPYRTDTLTEYSSKDDFIAGRPTTTYKLPHRVDGTGFVVYDGALFFNKERTRNIVKFDLRTRIKSGEAIIANANYHDTSPYRWGGKSDIDLAVDENGLWVIYATEQNNGKIVISQLNPYTLRIEGTWDTAYDKRSASNAFMICGILYVVKSVYEDDDNEATGNKIDYIYNTDQSKDSLVDVPFPNSYQYIAAVDYNPRDNLLYVWNNYHVVKYSLDFGPLDSRSGPVHHGQVSYISPPIHLDSELERPPVRGI

B2: FLRT3-LRR (leucine-rich repeat domain of mouse FLRT3, amino acids 29-386) (domain or fragment, UniProt Q8BGT1 29-386, looked up)
chain: T1 sequence (looked up) with T89R
modifications: N-linked glycosylation (three predicted sites; one N-Acetyl-glucosamine modelled on Asn226)
Kd [3]: 43300 nM
stoichiometry N [3]: 2
